One data set relates to Bacillus subtilis CotA. The following applies: described in Durão P et al, 2008; cited from earlier work.
Another data set concerns B. licheniformis CotA. The conditions noted are these: described in Koschorreck K et al, 2008; cited from earlier work.
Data set [1] can be described thus: Fe(II) oxidation kinetics, FerroZine quench assay. It is filed as biochemical. The following applies: pH 5. The procedure: (§1) Kinetic experiments were performed on the Molecular Devices SpectraMax® M2 microplate reader spectrophotometer at 22° C. with purified protein. […] Reactions were carried out with 10 μg Mnx (final 240 nM) 100 mM in phosphate-citrate buffer pH 3-8 and 20 mM CHES, HEPES, and MES at pH 7-10. Dimethoxyphenol (DMP) oxidation was followed by measuring the increase in absorbance at 468 nm and ε=49.6 mM-1 cm-1. These assays were performed in at least two independent trials in triplicate. Fe(II) (ferrous ammonium sulfate) oxidation was measured by quenching 200 μl reactions with 50 μl of the Fe(II) chelating colorimetric assay FerroZine® (15 mM) and a ferrous ammonium sulfate standard curve, noting the absorbance at 570 nm. Fe(II) oxidation reactions were performed with 10 μg recombinant Mn oxidase complex in 100 mM Na acetate-acetic acid buffer (pH 4-5.5). Mn(II) (MnCl2) oxidation in 20 mM HEPES (pH 7-8.5) was measured by quenching 5 μl of 200 μl reactions with 195 μl leucoberbelin blue (LBB) colorimetric reagent and reading the absorbance at 618 nm. […] These slopes were converted to the appropriate kinetic units, plotted, and fit with nonlinear regressions determined by comparing best fit values in the same software. KM and Vmax were determined and reported as KM and kcat=Vmax/[enzyme].

The nature of data set [2]: 2,6-DMP oxidation kinetics, absorbance at 468 nm. It is filed as biochemical. The following applies: Phosphate-citrate buffer. The procedure:
as §1

Data set [3] is described as follows: Mn(II) oxidation kinetics, leucoberbelin blue (LBB) quench assay. It counts as biochemical. The procedure: Kinetic experiments were performed on the Molecular Devices SpectraMax® M2 microplate reader spectrophotometer at 22° C. with purified protein. […] Reactions were carried out with 10 μg Mnx (final 240 nM) 100 mM in phosphate-citrate buffer pH 3-8 and 20 mM CHES, HEPES, and MES at pH 7-10. Dimethoxyphenol (DMP) oxidation was followed by measuring the increase in absorbance at 468 nm and ε=49.6 mM-1 cm-1. These assays were performed in at least two independent trials in triplicate. Fe(II) (ferrous ammonium sulfate) oxidation was measured by quenching 200 μl reactions with 50 μl of the Fe(II) chelating colorimetric assay FerroZine® (15 mM) and a ferrous ammonium sulfate standard curve, noting the absorbance at 570 nm. Fe(II) oxidation reactions were performed with 10 μg recombinant Mn oxidase complex in 100 mM Na acetate-acetic acid buffer (pH 4-5.5). Mn(II) (MnCl2) oxidation in 20 mM HEPES (pH 7-8.5) was measured by quenching 5 μl of 200 μl reactions with 195 μl leucoberbelin blue (LBB) colorimetric reagent and reading the absorbance at 618 nm. Working LBB reagent was prepared by diluting concentrated stock (100 mg LBB in 25 ml 0.4% NaOH) 1:10 into 1% acetic acid. A KMnO4 standard curve was used to determine MnO2 oxide equivalent concentration. The metal substrate assays were performed in five independent trials then the high and low values were discarded from each concentration. The linear part of each curve was fit plotted and fit with a linear regression in GraphPad Prism®. These slopes were converted to the appropriate kinetic units, plotted, and fit with nonlinear regressions determined by comparing best fit values in the same software. KM and Vmax were determined and reported as KM and kcat=Vmax/[enzyme].

The nature of data set [4]: O2 consumption during Mn oxidation, Clark type electrode. It is filed as biochemical. The following applies: for lag time before O2 consumption is detected: after addition of MnCl2, across all runs. As to the method:
Also indicative of MCOs is the consumption of O2 and its reduction to H2O, terminating electron transfer at the trinuclear Cu center. O2 consumption was measured on a Clark type electrode during Mn oxidation by the recombinant Mn oxidase complex. Following the addition of MnCl2 to the enzyme, there is about a 30 s lag time before O2 consumption is detected across all runs (FIG. 7A). Starting with a higher concentration of MnCl2, results in a faster initial velocity of O2 consumption (FIG. 7B). […] This stoichiometry supports the MCO mechanism of the four electron reduction required to generate 2 mol H2O from 1 mol O2.
Oxygen consumption was measured on a Rank Brothers LTD model 10 electrode with the polarizing voltage set to 630 mV. The 2 ml water-jacketed reaction cell was kept at 37° C. using a water bath. The instrument was calibrated by taking a zero measurement with Ar purged water and a 100% measurement with atmospheric oxygenated water assuming 214 μM O2 at […]. A computer interfaced with the electrode measured 02 every 1 s. Data collection began about 1 min before 10 μL of 1 mg/ml Mnx protein (^˜24 nM final if mass of recombinant Mn oxidase complex is 211 kDa) was added through the 2 mm diameter opening in the cap and allowed to equilibrate with 37° C. 20 mM HEPES pH 7.8 50 mM NaCl. Another minute of baseline reading was taken before adding 10 μL of various concentrations of MnCl2. The data was plotted Time (min) vs. % O2 remaining, if addition of MnCl2 is t=0. The initial O2 consumption velocities of all runs were plotted against starting MnCl2 concentration. Total O2 consumed was calculated by taking the difference of final from initial O2 concentrations then plotted against MnCl2 concentration and fitted with a linear regression, forced through the xy origin.

On to `CCn1c(=NN=c2sc3cc(S(=O)(=O)O)ccc3n2CC)sc2cc(S(=O)(=O)O)ccc21` [ABTS, 2,2′-azino-bis(3-ethylbenzthiazoline-6-sulphonic acid)], for which, in the data set with Bacillus subtilis CotA, the Michaelis-Menten constant (Km) was 6.5 µM and the kcat was 83 s⁻¹. Besides, the kcat with B. licheniformis CotA was 322 s⁻¹.

B1: recombinant Mn oxidase complex: recombinantly produced Bacillus sp. PL-12 manganese oxidase complex comprising MnxG, MnxE and MnxF, expressed in E. coli (protein, listed as Bacillus sp.)
chain 1: HVFHYHVHQWLGDSSNINAEILDAQSISPQTHYSIQPLYGLGSLHGAIGDSIIHCHLYPHFGIGMWGINRVFDTLQDGSQCYPNGVRIDALKPLPDRPAPPKPTREKPGFPNFIPGKVGYKAPRPPLGIVGGREMTELERNAAIPNPRPGAVFVDPCLDQDPVVVEFNVSAIEMPVVYNKQGWHDPKARFYVMDEDLDDILSGKKEPEPLVFHVPAGTCIRMNYTNRMPHILDGDAFQLVTRTYENGFHIHFVKFDVLACDGGNVGWNYDSAVLPGQTIRYEWYAETELKAWFFHDHLF
chain 2: MHDSPLKSLSAASNVASVNDPLFDFFNKHMGKQILIITESSQLNILGQTFRPIFCGKVAEVEPGHLTLSPVTIKILNAPFHKFPIPLSIPFEKIAHFTTDVDCSMRIPLV
chain 3: MEALFPMSTDYSKMTDVNEIHDSAILEHFRNGIGHKTLVISPSYPYMFVGIIKELIGDTVMIDVETTHFAQLENREWYIHIHNIEVFYIERPGAPKIPKLEDY
Turning to B1, in data set [1], the “Fe(II) kcat” value worked out at 0.0744 ± 0.00779 s⁻¹ and the Km came to 9 µM. Besides, the “2,6-DMP oxidation activity” value in data set [2] was “inactive”. In addition, the “pH optimum of Mn oxidation” value in data set [3] is given as 7.8. Further, in data set [3] (HEPES dialyzed protein), the “Mn(II) K0.5” value turned out to be 123 ± 7.00 µM and the “Mn(II) kcat” value came out at 16.1 ± 0.941 s⁻¹. In data set [3] (Tris dialyzed protein), the “Mn(II) K0.5” value is 134.6 ± 9.16 µM and the “Mn(II) kcat” value came to 12.9 ± 0.758 s⁻¹. Also, the “lag time before O2 consumption is detected” value in data set [4] is listed as about 30 s. For the same molecule, in data set [4] (listed as recombinant Mnx complex), the “lag time before O2 consumption is detected” value is listed as “about 30 s”. The “slope of MnCl2 added vs. O2 consumed” value in data set [4] (linear regression forced through the origin, 37° C., HEPES pH 7.8) is given as “about 0.252±0.0149”.

(Values after patent publication US9631180B2, “Recombinant manganese oxidase” (OREGON HEALTH & SCIENCE UNIVERSITY, priority 2013, dated 2017).)
